Molecular target: methanol dehydrogenase (MDH) of Bacillus brevis S1 strain (NCIMB No. 12524) (Bacillus brevis S1 strain)

Activation ratio (%) of methanol dehydrogenase activity (Δ OD 340 nm/min, reduction of NAD+): 250%
Substance: methanol dehydrogenase activator YqkG of Bacillus subtilis (product of the yqkG / amd gene)

Reference: patent US6280972
